Here are results for one molecule from article PMC5858577.

The target of the data set is VEGF (human recombinant VEGF165 in the cell experiments) (human, UniProt P15692-4 27-191). Briefly: fluorescence recovery by displacement from gold nanorod.

B1: gapmer aptamer probe (XNA)
DNA: CAATTGGGCCCGTCCGTATGGTGGGT
modifications: LNA monomers at both ends, DNA in the middle; exact positions only in Fig. 1b/Supplementary Table 1
As to B1, the binding result was “binds”.
